Experimental data published in the DeepSol protein solubility set.

assay: soluble on expression in E. coli; label from the status in PepcDB or PDB records

Row | Sequence | soluble on expression in E. coli
1 | MARKGTTPWHESREMHTQDDADSSLKEQEKTTNKKEQTTAPPEKKLPTIPGKLPKRSVEPPEESRDQKPAGNKPNLKKSPSNPRIPPGGSHPRKKPKVPNRDPSGKHVNSDKKKPSAEAHDKESLSSPPQTDAGKETTKESASTYGASWKSSKPTLKADLKAMEDYITKMPNFHGYICREDAAQILKHPGDWLVRLSVPPSNDQDKKNKAQNLAKSVERTKGHKSTMQKVFVISVLCKGKALSPAKSNNRNLVIKTNNGKFSIDSVHWLVKLKDLFSHYQGTSAVHKNGEFQLLNPISLSKWEFQHEDTELLAKKLGEGAFGEVRVGRLTTKDPKKKLVEVAVKMLKSSADSVTRDQVEELLHETRIMRKLDHPNVLRSYGVAVLREPLYLMIELCSNGALREYLKENHKTITLADKINFVLGSARGVAYLHSQRILHRDLAVRNILLTEDKTPKVSDFGLAELTDRYEMKEHCKIPVRYLAPETLELFIFTPKTDVFSFGCVIWEIYENGQQPHDGKNAQTIRAQVKKREFLKLSSSAPEALRRLVAEKVFVADPENRCSMTSIVQCVETAEKTVK | soluble
2 | MARKVIDVRIVNAATAEQESFIKELSMELIHDVFPLYFSELDIQRLKKKGVLSLNNHYYQGTLKEAFQIMACLQMIHIILTKPSPHSDLSDQAIFEKNSKMLNDFGIYFPFAFSDFQKKTNKAFFGQRRLILEHHHHHH | not soluble
3 | MARSQLSAAGEQHVIQLNQQGGKNLFCFPPISGFGIYFKDLALQLNHKAAVYGFHFIEEDSRIEQYVSRITEIQPEGPYVLLGYSAGGNLAFEVVQAMEQKGLEVSDFIIVDAYKKDQSITADTENDDSAAYLPEAVRETVMQKKRCYQEYWAQLINEGRIKSNIHFIEAGIQTETSGAMVLQKWQDAAEEGYAEYTGYGAHKDMLEGEFAEKNANIILNILDKINSDQKVLPNKHGSHHHHHH | soluble
4 | MARTAVPDNQPEITGFRIVLNNFEGPFDLLLQLISAKKLDVTDVALHKVTDDFVAYTRALGEFAELDEVTEFLVVAATLLDLKAARLLPRGEVDDLSDLELLESRDLLFARLLQYKAYKQVADQFARWQLAAQRRYPRAVGMEEQFSSLLPPVKISHTPKSFAELAASVFRPKPPDTVGTSHVHGVEVSVPEQAGKVLDLLVECGEGVWMDFPDLITGCRVSLEVVGRFLALLELYKARAVSLEQEESLGALRVSWTGIHVDPAIVAASNWA | not soluble
5 | MARTRSADYENIRDTIIERAAAMFARQGYSETSIGDIARACECSKSRLYHYFDSKEAVLRDMLTTHVDSLLERCRQVLYGSNEPKTRFLQIVKLFLEIYATSRDRHVVMLTCLDALPEDQRKALIAKQRELIAYVRDALLQLRPDMAANRTLAHVDTMLFFGMINWTYTWYKADGSVSPDALAERTVQLFLDGYLNLLSA | soluble
6 | MASCHEPSAFKSLCAHPSTLTATFDVSPYSSAFHLPIHPALLSNTHLLHLNTYNPTTYESTERLFEQNNNNSEKAESCSSRDSSHDSSSPTSTGGSSRDNVIVRNELKRKKDQVKDVAYWERRRKNNDAAKRSRDQRRMKEDEMAHRATSLERENMLLRVELDQLRAETDKLRALILTTPTTSISIPIPLQSLPLLTAQTAPASSVITTSQMYAPLPLKIPKTPSPSLLRSTVLVSNSSKT | not soluble
7 | MASDDEEDFTQLQINQNRKHKKAGGWQQIGLDHSVYKAIEKKGFNQPTPIQRKTIPCIMDGKDVVAMSRTGSGKTAAFVIPMLQKLKRRDTTGIRALMVSPTRELALQTFKVVKELGRFTGLRCACLVGGDQIEEQFSTIHENPDILLATPGRLLHVIVEMDLRLSYVQYVVFDEADRLFEMGFQDQLTETLKRIPESRQTLLFSATLPKMLVDFAKAGLTDPMLVRLDVDEKVSDKLSMVFCMCRPDEKLFALLHLCRNFCFKKLLETSLKKCKISKKKVPLLKKVRMDRENKQTVVFCATMKHVEYVVGILHRAGIDCSFVYSQLDATARKMNIQKFHEKQNNILVVTDVAARGVDIPLLDTVINLHFPPKAKLFVHRVGRVARAGRSGTAISLIANDELPYLTDLFMFLGKPINFASDKSEYKEDETLIGRVPDSIVSLETEFFHSIHDNNEDMQDLRQKATNAMMKYTRTRPPPSAESARRVKQDIRTDSVECAPHPFLKADGDKQSNDILNKISQYKSRNTIFEMNKSQKSQALAVMQAKRKAHEPRISTVTEEKRKQKEEKEQQQKSTDIAVEIAEKTVENAGEDELAEVFGTVIGSTKHTEKSEEKGGKKRKIGTGKRIDRAEQMKFEREKHYVPYMSSDHVAERHLALDTVDFARQAEGASVDIIMDDDRGMYQQKHGQRWDRRLKKYVGLSGGNEPANKKIRTEDGTWLPASYKTGKYEDWKQKQKIGFKKSDGGGDDGDNEGSGGMDRKRKWKMEKPKGGPKHSELKNKEQILKGRRKQEQLENYMEHRRQSNLKKKAEHLGRGGAGGARGGARGGARGGARGGSSRGARGGARGGGKFGNRR | not soluble
8 | MASDPITTQEFSPRQNAVLDQALRLLVEGGEKALTTSGLARAANCSKESLYKWFGDRDGLLAAMITFQQSKVRTFEKAGDRVSAPQLADHLEVFAHDLLDVLAGDVSLALNRLAIGQASRDGSKLGDLLLERGRRQIDRRARGLIEAGRRSGYLRFDDAEEAYRSFYGLIVSDLHVRMLLGEAPDKDFSARAKKAVVAFLTLYGTEKVHSELGGKVA | soluble
9 | MASEPIQITPNLAIPPGEIVERFVRASGAGGQNVNKVSTAVELRFDVAGSPSLPEPLRARLLSRRDRRMTADGVLVIDAQRFRTQDRNREDARERLAEIINACLSVPKRRVATKPSHGAKLRRLDAKRERSQIKRGRSASHWELEHHHHHH | soluble
10 | MASINLIKSLKLYKEKIWSFDFSQGILATGSTDRKIKLVSVKYDDFTLIDVLDETAHKKAIRSVAWRPHTSLLAAGSFDSTVSIWAKEESADRTFEMDLLAIIEGHENEVKGVAWSNDGYYLATCSRDKSVWIWETDESGEEYECISVLQEHSQDVKHVIWHPSEALLASSSYDDTVRIWKDYDDDWECVAVLNGHEGTVWSSDFDKTEGVFRLCSGSDDSTVRVWKYMGDDEDDQQEWVCEAILPDVHKRQVYNVAWGFNGLIASVGADGVLAVYEEVDGEWKVFAKRALCHGVYEINVVKWLELNGKTILATGGDDGIVNFWSLEKAA | soluble
11 | MASKYAVKLKTDFDNPRWIKRHKHMFDFLDINGNGKITLDEIVSKASDDICAKLEATPEQTKRHQVCVEAFFRGCGMEYGKEIAFPQFLDGWKQLATSELKKWARNEPTLIREWGDAVFDIFDKDGSGTITLDEWKAYGKISGISPSQEDCESTFRHCDLDNAGDLDVDEMTRQHLGFWYTLDPEADGLYGNGVP | soluble
12 | MASLLTETMPFRMTMEGTVNGHHFKCTGKGEGNPFEGTQDMKIEVIEGGPLPFAFDILSTSC | soluble
13 | MASMPSRTALSPGVLSPTRPVPNWIARPEYVGKPAAQEGSEPWVQTPEVIEKMRVAGRIAAGALAEAGKAVAPGVTTDELDRIAHEYLVDNGAYPSTLGYKGFPKSCCTSLNEVICHGIPDSTVITDGDIVNIDVTAYIGGVHGDTNATFPAGDVADEHRLLVDRTREATMRAINTVKPGRALSVIGRVIESYANRFGYNVVRDFTGHGIGTTFHNGLVVLHYDQPAVETIMQPGMTFTIEPMINLGALDYEIWDDGWTVVTKDRKWTAQFEHTLLVTDTGVEILTCL | soluble
14 | MASQTQGIQQLLAAEKRAAEKINEARKRKLQRTKQAKQEAQAEVEKYKQQREAEFKAFEQQYLGTKEDIESKIRRDTEDQISGMKQSVAGNKQAVIVRLLQLVCDIKPELHHNLTLQKKLHGQFAA | not soluble
15 | MASRETILDVLAKLEECKETLNNSLNYDEAANSNGSSTFQDQSEIKIEHIAPNLVFENGTVPQEQSNSFQWYEEEVSNDACVSSNEYSGVKLCPFNIGFKSYNTPPDQMQQLDKSISDNMACRMNVDFSGIDRLIQHGSEDMRTVGYGMRGMMKLLQIQHEKLMGKKPDDVTTGLKASLVPARFLKEKTVIVRNLTDDADINVNKVFGQLTAQSSSLKNIVINAANVWIKNVVPDEQRKLYSTSIKPQQPQITFPAQLLNGPAGLLVRCLSVTGGDNSSNAVNISLLFKQHVSNLFNHARSKSGITNSRKRKQQSEDYSYN | not soluble
16 | MASTSAATPLKNKRKFENGKKKPKTLKDEFGEKLDIKPVIVPPKPADEYDYDSSDEEDLRNTIGNIPIKWYDDEDHIGYDKFGEKIAKPAKKGEIETFLEKMEDPDYWRKVFDKQTGTDVKLTDEQIEKIHNIATGKYPTIGYNPYEPFLDIFSSQKEIHPIDNRPEPKSRFIPSKDEMRMVSRMVHAIKMGWAKGPRAKKEEHKSYDLWASEDALDNVTKSQLSRMRVHMPAPKVALPTHAESYNPPEEYIFDDEERKKWEEAEKEDRVLNFMPSKYDALRKVPQYDKFITERFERCLDLYLAPRQRKMRIHADPTDLLPDLPNPNDLRPFPTTLAFYMRGHTGQVRAITVEPERGELLASGGEDGTVRIWMIATGRCIKTFQMDGEVTSVSFSPVADRTLLAVAYEGKYVAILNTGCGDRLHVQQTEALLAETPTDAQEDGAVVTWRKSKEKLMLKMPNEVRQVTWHSKGDYFASVAIDDIAKSVYVHQLSKAKSQCPFQKRKGHVQAVTFHPTQARLFVATKIHVREYDLARCVLVKKLITGCKHISTMATDANGENLFLGGLDRRFCWMDLQMGNKPWKKLKHHTAAVRSVAYHKKYPLLATVSDDGTAMVYYARIYTDFVKDNELYPVKRLRAHEKTPNDLCMLHTTWHPTQPWLITAGADGTIALFTY | not soluble
17 | MASTSTGLPPNWTIRVSRSHNKEYFLNQSTNESSWDPPYGTDKEVLNAYIAKFKNNGYKPLVNEDGQVRVSHLLIKNNQSRKPKSWKSPDGISRTRDESIQILKKHLERILSGEVKLSELANTESDCSSHDRGGDLGFFSKGQMQPPFEEAAFNLHVGEVSNIIETNSGVHILQRTG | soluble
18 | MASYKKERLENDIIRLINRTVIHEIYNETVKTGHVTHVKLSDDLLHVTVYLDCYNREQIDRVVGAFNQAKGVFSRVLAHNLYLAKAVQIHFVKDKAIDNAMRIESIINSLKKSKPN | soluble
19 | MATAVVQRKGYDNVELSLSEDDDPVKEKKKSKGNEKKSSTESKSKESKETSKEEDLAQKKFLMTQKTQSMTEDEKEVKPKAPESQKPKKNSAEESNEKIKKEGSVKVETVASKVKPASSRVPPIASTPGKGSVDGEQKKKSTGCCIIL | soluble
20 | MATDSWALAVDEQEAAAESLSNLHLKEEKIKPDTNGAVVKTNANAEKTDEEEKEDRAAQSLLNKLIRSNLVDNTNQVEVLQRDPNSPLYSVKSFEELRLKPQLLQGVYAMGFNRPSKIQENALPLMLAEPPQNLIAQSQSGTGKTAAFVLAMLSQVEPANKYPQCLCLSPTYELALQTGKVIEQMGKFYPELKLAYAVRGNKLERGQKISEQIVIGTPGTVLDWCSKLKFIDPKKIKVFVLDEADVMIATQGHQDQSIRIQRMLPRNCQMLLFSATFEDSVWKFAQKVVPDPNVIKLKREEETLDTIKQYYVLCSSRDEKFQALCNLYGAITIAQAMIFCHTRKTASWLAAELSKEGHQVALLSGEMMVEQRAAVIERFREGKEKVLVTTNVCARGIDVEQVSVVINFDLPVDKDGNPDNETYLHRIGRTGRFGKRGLAVNMVDSKHSMNILNRIQEHFNKKIERLDTDDLDEIEKIAN | soluble
21 | MATFNLNGLGTPKSATYDNESAYRELLSRVNNGESIVVSVYTDKDNYPAFGIETKKVARFKVRVNQSLLSLLVGYLNNSTVNEDTVRANEVEPNEEGQDFTTDLFKLLIDEGFTPQIAPLFRTVYGYVNAVFNFPNGRMYFRLEHTDELMDYLADKKLL | not soluble
